The values that follow come from publication PMC9610768 (2022).

The target of this assay is actin filament (skeletal muscle alpha-actin) (Oryctolagus cuniculus, UniProt P68135). Description: co-sedimentation.

For orientation: Kd means the free concentration of one partner at which half of the binding sites on the other are occupied at equilibrium, for simple one-to-one binding.

B1: GFP-Rng2CHD CHD (protein)
chain: MDVNVGLSRLQSQAGAPVGTKGSNTRLAAKQRETLQAYDYLCRVDEAKKWIEECLGTDLGPTSTFEQSLRNGVVLALLVQKFQPDKLIKIFYSNELQFRHSDNINKFLDFIHGIGLPEIFHFELTDIYEGKNLPKVIYCIHALSYFLSMQDLAPPLIKSDENLSFTDEDVSIIVRRLRQSNVILPNFKA
modifications: GFP fused to Rng2CHD N-terminus, phalloidin-stabilized actin filaments
Take B1: binding was put at a Kd of 3400 nM.

B2: Rng2CHD CHD (protein)
chain: B1 chain
modifications: phalloidin-stabilized actin filaments
As to B2, the affinity, expressed as Kd, was 920 nM.
